From doi:10.1101/2025.08.25.672233

Target: soluble mouse MXRA8-Fc (UniProt Q9DBV4)
Conditions: read off a plot; for other: 1/IC50: mean of three biological replicates, parent: est. 2.6; for screen value: parent: est. 0

UniProt Q9DBV4, sequence (Q9DBV4 22-336): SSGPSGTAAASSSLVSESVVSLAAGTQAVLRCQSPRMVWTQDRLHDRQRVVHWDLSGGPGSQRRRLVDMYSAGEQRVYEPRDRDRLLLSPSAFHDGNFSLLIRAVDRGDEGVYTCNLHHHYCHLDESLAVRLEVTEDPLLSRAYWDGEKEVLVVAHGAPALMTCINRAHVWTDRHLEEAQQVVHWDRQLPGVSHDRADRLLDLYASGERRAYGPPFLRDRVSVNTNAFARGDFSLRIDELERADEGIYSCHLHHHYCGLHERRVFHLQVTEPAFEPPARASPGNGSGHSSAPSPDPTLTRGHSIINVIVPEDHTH

Substance: CHIKV envelope proteins (E3-E2-6K-E1) from the 181/25 strain, unmutated, on pseudovirus E2:H18A
- other: 1/IC50: 3.2
- screen value: 1.6

Substance: CHIKV envelope proteins (E3-E2-6K-E1) from the 181/25 strain, unmutated, on pseudovirus E2:R178S
- other: 1/IC50: 1
- screen value: -2.3

Substance: CHIKV envelope proteins (E3-E2-6K-E1) from the 181/25 strain, unmutated, on pseudovirus E1:K157C
- other: 1/IC50: 0.71
- screen value: -1.7

Substance: CHIKV envelope proteins (E3-E2-6K-E1) from the 181/25 strain, unmutated, on pseudovirus E2:K120D
- other: 1/IC50: 0.17
- screen value: -2.5

Substance: CHIKV envelope proteins (E3-E2-6K-E1) from the 181/25 strain, unmutated, on pseudovirus E1:K132N
- other: 1/IC50: 0.3
- screen value: -2.6

Substance: CHIKV envelope proteins (E3-E2-6K-E1) from the 181/25 strain, unmutated, on pseudovirus E2:E24Y
- other: 1/IC50: 1.1
- screen value: 1.9

Substance: CHIKV envelope proteins (E3-E2-6K-E1) from the 181/25 strain, unmutated, on pseudovirus E2:R119K
- other: 1/IC50: 0.05
- screen value: -3.5

Substance: CHIKV envelope proteins (E3-E2-6K-E1) from the 181/25 strain, unmutated, on pseudovirus E2:I121E
- other: 1/IC50: 0.05
- screen value: -3.1

Substance: CHIKV envelope proteins (E3-E2-6K-E1) from the 181/25 strain, unmutated, on pseudovirus E2:Q158T
- other: 1/IC50: 2.1
- screen value: -0.15

Substance: CHIKV envelope proteins (E3-E2-6K-E1) from the 181/25 strain, unmutated, on pseudovirus E1:D158R
- other: 1/IC50: 15
- screen value: 1.9

Substance: CHIKV envelope proteins (E3-E2-6K-E1) from the 181/25 strain, unmutated, on pseudovirus E2:A157S
- other: 1/IC50: 9.4
- screen value: 0.85

Substance: CHIKV envelope proteins (E3-E2-6K-E1) from the 181/25 strain, unmutated, on pseudovirus E2:K189Y
- other: 1/IC50: 140
- screen value: 2.4
